Reference: US20260015399A1 (Boehringer Ingelheim, published 2026)
*1 amine or outer side, *2 acyl side, *3 side chain or, on linkers, in order; H or OH if unused. Side-chain parts run from the residue outwards. The star is where a group is joined. C18 diacid = O=C(O)CCCCCCCCCCCCCCCCC(=O)*; γGlu = O=C(O)[C@H](CCC(=O)[*:2])N[*:1]; Isovaleryl = CC(C)CC(=O)*; Ahx = NCCCCCC(=O)O

T1: human NPY2 receptor (human, UniProt P49146 1-381)
T1 construct: whole, on cells; also called hNPY2-R; hNPY2R
T1 sequence (looked up): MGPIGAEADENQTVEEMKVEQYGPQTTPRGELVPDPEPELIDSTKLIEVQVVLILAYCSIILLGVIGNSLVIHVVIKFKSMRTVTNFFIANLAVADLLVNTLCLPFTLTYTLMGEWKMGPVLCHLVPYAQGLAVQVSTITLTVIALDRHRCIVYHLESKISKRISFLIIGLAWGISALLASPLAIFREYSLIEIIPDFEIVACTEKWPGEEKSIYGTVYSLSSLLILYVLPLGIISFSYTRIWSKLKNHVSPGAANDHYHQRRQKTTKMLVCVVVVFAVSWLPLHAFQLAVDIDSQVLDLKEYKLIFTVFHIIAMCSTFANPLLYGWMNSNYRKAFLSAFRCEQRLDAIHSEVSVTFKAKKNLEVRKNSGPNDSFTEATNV


target: T1, human NPY2 receptor; experiment: RLB: displacement of 125I-PYY(1-36) from hNPY2R membranes
Description: The filtration RLB assay was carried out in 96-well plates in a final volume of 100 μl per well. Freeze-dried test peptides were dissolved in 100% dimethyl sulfoxide (DMSO) to stock solutions of 1 mM and serial dilutions were performed in assay buffer (50 mM HEPES, 5 mM MgCl₂, 1 mM CaCl₂), pH 7.4) containing 0.2% ovalbumin. […] Next, 80 μL membranes (HTS066M, ChemiSCREEN™ Human Neuropeptide Y2 Receptor Membrane Preparation, CHEMICON) were added to each well to give a final protein concentration of 0.5 μg/well. The plates were sealed and incubated at room temperature for 2 hours in a plate shaker set at 400 rpm. The incubation was stopped by vacuum filtration onto 0.5% polyethylene amine (PEI) presoaked GF/C filters using a 96-well FilterMate™ harvester (Perkin Elmer) followed by four washes with 300 μl/well ice-cold wash buffer (50 mM HEPES, 500 mM NaCl, pH7.4). Filter plates were then dried for 60 min at room temperature and the bottom of the plates was sealed with backing tape UniFilter-96. Finally, 50 μl/well scintillation counter cocktail (Microscint20, Packard) was added and the radioactivity was counted in the Packard TopCount NXT scintillation counter. IC₅₀ values (the half maximal inhibitory concentration of the agonist) were calculated by nonlinear regression analysis of sigmoidal dose-response curves.

| Ki [nM] | Binder |
| --- | --- |
| 4.07 | Isovaleryl-APEK([Ahx-γGlu-C18 diacid])PEEDATPEELQRYYVSLRHYYNWLTRQRY-NH2 (SMILES CC(C)CC(=O)N[C@@H](C)C(=O)N1CCC[C@H]1C(=O)N[C@@H](CCC(=O)O)C(=O)N[C@@H](CCCCNC(=O)CCCCCNC(=O)CC[C@H](NC(=O)CCCCCCCCCCCCCCCCC(=O)O)C(=O)O)C(=O)N1CCC[C@H]1C(=O)N[C@@H](CCC(=O)O)C(=O)N[C@@H](CCC(=O)O)C(=O)N[C@@H](CC(=O)O)C(=O)N[C@@H](C)C(=O)N[C@H](C(=O)N1CCC[C@H]1C(=O)N[C@@H](CCC(=O)O)C(=O)N[C@@H](CCC(=O)O)C(=O)N[C@@H](CC(C)C)C(=O)N[C@@H](CCC(N)=O)C(=O)N[C@@H](CCCNC(=N)N)C(=O)N[C@@H](Cc1ccc(O)cc1)C(=O)N[C@@H](Cc1ccc(O)cc1)C(=O)N[C@H](C(=O)N[C@@H](CO)C(=O)N[C@@H](CC(C)C)C(=O)N[C@@H](CCCNC(=N)N)C(=O)N[C@@H](Cc1c[nH]cn1)C(=O)N[C@@H](Cc1ccc(O)cc1)C(=O)N[C@@H](Cc1ccc(O)cc1)C(=O)N[C@@H](CC(N)=O)C(=O)N[C@@H](Cc1c[nH]c2ccccc12)C(=O)N[C@@H](CC(C)C)C(=O)N[C@H](C(=O)N[C@@H](CCCNC(=N)N)C(=O)N[C@@H](CCC(N)=O)C(=O)N[C@@H](CCCNC(=N)N)C(=O)N[C@@H](Cc1ccc(O)cc1)C(N)=O)[C@@H](C)O)C(C)C)[C@@H](C)O) [Compound 173] |
| 12.7 | Isovaleryl-APAK([Ahx-γGlu-C18 diacid])PEEDASPEELQRQYVSLRHYYNWLTRQRY-NH2 (SMILES CC(C)CC(=O)N[C@@H](C)C(=O)N1CCC[C@H]1C(=O)N[C@@H](C)C(=O)N[C@@H](CCCCNC(=O)CCCCCNC(=O)CC[C@H](NC(=O)CCCCCCCCCCCCCCCCC(=O)O)C(=O)O)C(=O)N1CCC[C@H]1C(=O)N[C@@H](CCC(=O)O)C(=O)N[C@@H](CCC(=O)O)C(=O)N[C@@H](CC(=O)O)C(=O)N[C@@H](C)C(=O)N[C@@H](CO)C(=O)N1CCC[C@H]1C(=O)N[C@@H](CCC(=O)O)C(=O)N[C@@H](CCC(=O)O)C(=O)N[C@@H](CC(C)C)C(=O)N[C@@H](CCC(N)=O)C(=O)N[C@@H](CCCNC(=N)N)C(=O)N[C@@H](CCC(N)=O)C(=O)N[C@@H](Cc1ccc(O)cc1)C(=O)N[C@H](C(=O)N[C@@H](CO)C(=O)N[C@@H](CC(C)C)C(=O)N[C@@H](CCCNC(=N)N)C(=O)N[C@@H](Cc1c[nH]cn1)C(=O)N[C@@H](Cc1ccc(O)cc1)C(=O)N[C@@H](Cc1ccc(O)cc1)C(=O)N[C@@H](CC(N)=O)C(=O)N[C@@H](Cc1c[nH]c2ccccc12)C(=O)N[C@@H](CC(C)C)C(=O)N[C@H](C(=O)N[C@@H](CCCNC(=N)N)C(=O)N[C@@H](CCC(N)=O)C(=O)N[C@@H](CCCNC(=N)N)C(=O)N[C@@H](Cc1ccc(O)cc1)C(N)=O)[C@@H](C)O)C(C)C) [Compound 5] |
| 2.05 | Isovaleryl-APEK([Ahx-γGlu-C18 diacid])PEADAEPEELQRYYIALRHYYNWLTRQRY-NH2 (SMILES CC[C@H](C)[C@H](NC(=O)[C@H](Cc1ccc(O)cc1)NC(=O)[C@H](Cc1ccc(O)cc1)NC(=O)[C@H](CCCNC(=N)N)NC(=O)[C@H](CCC(N)=O)NC(=O)[C@H](CC(C)C)NC(=O)[C@H](CCC(=O)O)NC(=O)[C@H](CCC(=O)O)NC(=O)[C@@H]1CCCN1C(=O)[C@H](CCC(=O)O)NC(=O)[C@H](C)NC(=O)[C@H](CC(=O)O)NC(=O)[C@H](C)NC(=O)[C@H](CCC(=O)O)NC(=O)[C@@H]1CCCN1C(=O)[C@H](CCCCNC(=O)CCCCCNC(=O)CC[C@H](NC(=O)CCCCCCCCCCCCCCCCC(=O)O)C(=O)O)NC(=O)[C@H](CCC(=O)O)NC(=O)[C@@H]1CCCN1C(=O)[C@H](C)NC(=O)CC(C)C)C(=O)N[C@@H](C)C(=O)N[C@@H](CC(C)C)C(=O)N[C@@H](CCCNC(=N)N)C(=O)N[C@@H](Cc1c[nH]cn1)C(=O)N[C@@H](Cc1ccc(O)cc1)C(=O)N[C@@H](Cc1ccc(O)cc1)C(=O)N[C@@H](CC(N)=O)C(=O)N[C@@H](Cc1c[nH]c2ccccc12)C(=O)N[C@@H](CC(C)C)C(=O)N[C@H](C(=O)N[C@@H](CCCNC(=N)N)C(=O)N[C@@H](CCC(N)=O)C(=O)N[C@@H](CCCNC(=N)N)C(=O)N[C@@H](Cc1ccc(O)cc1)C(N)=O)[C@@H](C)O) [Compound 1] |
| 1.57 | Isovaleryl-APAK([Ahx-γGlu-C18 diacid])PEADAEPEELQRYYVALRHYYNWLTRQRY-NH2 (SMILES CC(C)CC(=O)N[C@@H](C)C(=O)N1CCC[C@H]1C(=O)N[C@@H](C)C(=O)N[C@@H](CCCCNC(=O)CCCCCNC(=O)CC[C@H](NC(=O)CCCCCCCCCCCCCCCCC(=O)O)C(=O)O)C(=O)N1CCC[C@H]1C(=O)N[C@@H](CCC(=O)O)C(=O)N[C@@H](C)C(=O)N[C@@H](CC(=O)O)C(=O)N[C@@H](C)C(=O)N[C@@H](CCC(=O)O)C(=O)N1CCC[C@H]1C(=O)N[C@@H](CCC(=O)O)C(=O)N[C@@H](CCC(=O)O)C(=O)N[C@@H](CC(C)C)C(=O)N[C@@H](CCC(N)=O)C(=O)N[C@@H](CCCNC(=N)N)C(=O)N[C@@H](Cc1ccc(O)cc1)C(=O)N[C@@H](Cc1ccc(O)cc1)C(=O)N[C@H](C(=O)N[C@@H](C)C(=O)N[C@@H](CC(C)C)C(=O)N[C@@H](CCCNC(=N)N)C(=O)N[C@@H](Cc1c[nH]cn1)C(=O)N[C@@H](Cc1ccc(O)cc1)C(=O)N[C@@H](Cc1ccc(O)cc1)C(=O)N[C@@H](CC(N)=O)C(=O)N[C@@H](Cc1c[nH]c2ccccc12)C(=O)N[C@@H](CC(C)C)C(=O)N[C@H](C(=O)N[C@@H](CCCNC(=N)N)C(=O)N[C@@H](CCC(N)=O)C(=O)N[C@@H](CCCNC(=N)N)C(=O)N[C@@H](Cc1ccc(O)cc1)C(N)=O)[C@@H](C)O)C(C)C) [Compound 3] |
| 4.65 | Isovaleryl-APEK([Ahx-γGlu-C18 diacid])PEEAAEPEELQRYYVSLRHYYNWLTRQRY-NH2 (SMILES CC(C)CC(=O)N[C@@H](C)C(=O)N1CCC[C@H]1C(=O)N[C@@H](CCC(=O)O)C(=O)N[C@@H](CCCCNC(=O)CCCCCNC(=O)CC[C@H](NC(=O)CCCCCCCCCCCCCCCCC(=O)O)C(=O)O)C(=O)N1CCC[C@H]1C(=O)N[C@@H](CCC(=O)O)C(=O)N[C@@H](CCC(=O)O)C(=O)N[C@@H](C)C(=O)N[C@@H](C)C(=O)N[C@@H](CCC(=O)O)C(=O)N1CCC[C@H]1C(=O)N[C@@H](CCC(=O)O)C(=O)N[C@@H](CCC(=O)O)C(=O)N[C@@H](CC(C)C)C(=O)N[C@@H](CCC(N)=O)C(=O)N[C@@H](CCCNC(=N)N)C(=O)N[C@@H](Cc1ccc(O)cc1)C(=O)N[C@@H](Cc1ccc(O)cc1)C(=O)N[C@H](C(=O)N[C@@H](CO)C(=O)N[C@@H](CC(C)C)C(=O)N[C@@H](CCCNC(=N)N)C(=O)N[C@@H](Cc1c[nH]cn1)C(=O)N[C@@H](Cc1ccc(O)cc1)C(=O)N[C@@H](Cc1ccc(O)cc1)C(=O)N[C@@H](CC(N)=O)C(=O)N[C@@H](Cc1c[nH]c2ccccc12)C(=O)N[C@@H](CC(C)C)C(=O)N[C@H](C(=O)N[C@@H](CCCNC(=N)N)C(=O)N[C@@H](CCC(N)=O)C(=O)N[C@@H](CCCNC(=N)N)C(=O)N[C@@H](Cc1ccc(O)cc1)C(N)=O)[C@@H](C)O)C(C)C) [Compound 4] |
